Assay results: PMC2818375

Molecular target: M2 muscarinic receptor fused to CFP (M2R-CFP) (UniProt P08172)
Assay: FRET or BRET

UniProt P08172, sequence (P08172 whole entry, the tested form may be a part): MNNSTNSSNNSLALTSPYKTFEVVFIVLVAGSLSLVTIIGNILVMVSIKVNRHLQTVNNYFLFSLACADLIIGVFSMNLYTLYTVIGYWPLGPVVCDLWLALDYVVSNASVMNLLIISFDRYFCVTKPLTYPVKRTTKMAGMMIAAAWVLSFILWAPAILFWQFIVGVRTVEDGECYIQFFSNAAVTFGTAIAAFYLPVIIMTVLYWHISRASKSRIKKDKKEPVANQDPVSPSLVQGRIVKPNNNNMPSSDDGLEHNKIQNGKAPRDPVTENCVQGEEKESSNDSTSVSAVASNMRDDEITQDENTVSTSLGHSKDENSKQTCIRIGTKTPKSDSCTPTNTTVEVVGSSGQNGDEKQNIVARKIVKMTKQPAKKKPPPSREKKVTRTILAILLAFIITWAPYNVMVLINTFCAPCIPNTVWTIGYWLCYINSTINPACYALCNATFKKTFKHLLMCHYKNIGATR

**Q.** For “GBR1R2-YFP chimera (N-terminal and transmembrane domains of GBR1, C-terminal domain of GBR2) (receptor)”, which %FRET is on record?
**A.** 6 %FRET
